Entries after “also recorded” stand apart in the source; their conditions may differ.

Experimental findings from PMC7468311 (Acta Pharmacologica Sinica, 2020) are described below.

Assay [1] relates to rat plasma. As to the kind of experiment: Plasma clotting measurement in vitro, PT. Particulars: at the same concentration. It counts as biochemical, Sprague Dawley (SD) rats.
For assay [2], the system named is rat plasma. The experiment in a line: Plasma clotting measurement in vitro, TT. The assay is classed as biochemical, Sprague Dawley (SD) rats. As to conditions: at the same concentration.
In assay [3] the test system is rat plasma. The experiment in a line: Plasma clotting measurement in vitro, aPTT. It counts as biochemical, Sprague Dawley (SD) rats. Particulars: at the same concentration.
Assay [4] has as its target thrombin (Homo sapiens, UniProt P00734). The experiment in a line: Bio-layer interferometry. It counts as binding.
Assay [5] has as its target DTIP D24A mutant. The experiment in a line: BLI.
Assay [6] concerns the target DTIP Y3A mutant. As to the kind of experiment: BLI.
Assay [7] addresses direct thrombin inhibitor peptide (DTIP). The experiment in a line: BLI.
Assay [8] concerns the target DTIP C6A-C14A mutant. The experiment in a line: BLI.
Assay [9] concerns the target DTIP E35A mutant. As to the kind of experiment: BLI.

Consider bivalirudin, for which the “PT of DTIP compared with bivalirudin” value in assay [1] is reported as “on the same order of magnitude”. Also, in assay [2], the “TT of DTIP compared with bivalirudin” value is listed as “on the same order of magnitude”. For the same substance, in [3], the “aPTT of DTIP compared with bivalirudin” value is given as “on the same order of magnitude”.
As to enoxaparin sodium, in assay [4], the “Binding of thrombin in BLI (in words)” value is recorded as “no direct interaction; also recorded: No binding”.
thrombin (enzyme): the Kd in assay [5] worked out at 194 nM; in assay [6] it was 162 nM; in assay [7] it was 164 nM; in assay [8], 138 nM; in assay [9] it was 188 nM.
